# Target: recombinant E protein domain III of DENV-2, flag and hexahistidine tagged (Dengue virus type 2, strain 16681 …, UniProt P29990)
# Test: SPR
# Details: both partners purified
binder,measurement,value
"humanized DB32-6 monoclonal antibody (antibody, V domains shown) VH: EVQLQQSGAELVKPGASVNLSCTASGFNIKDTYIHWVKQRPEQGLEWIGRIDPENGNAKYDPNFQAKATIAADTSSNTAYLQLSSLTSEDTAVYYCVRTGSFWYFDVWGQGTLVTVSS VL: not shown",Kd,0.18 nM
